Measured values: the supplement of paper PMC10567573
± gives the standard deviation.

Test: protein stability index of a GFP-peptide fusion (GPS, HEK-293T) (PSI 1-6); higher = more stable
[1] = treatment: DMSO, c terminus: a fixed tail appended
[2] = treatment: MLN4924 1 uM, 8 h, c terminus: a fixed tail appended
[3] = treatment: DMSO, c terminus: native
[4] = treatment: MLN4924 1 uM, 8 h, c terminus: native
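Also: 24-mer peptide tiles fused after GFP, lentivirally expressed, FACS-sorted into six equal bins by GFP/DsRed ratio, decoded by Illumina sequencing, PSI is the read-weighted mean bin number.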

Sequence	protein stability index [1]	protein stability index [2]	protein stability index [3]	protein stability index [4]
LNSEQAEQLERINDALSCEYECRR [FAM98B]	4.54 ± 0.29	4.66 ± 0.11		
LPDNYEIIDSSLEDITYVLKPTFT [USP39]	2.87 ± 0.39	2.8 ± 0.47		
LPEAPPKKFLTLGSKFRYSGRTQA [EPB41L3]	3 ± 0.28	3.18 ± 0.39		
LPPEALTAPSGGQWGAEPEGSCYQ [RNF208]	4.73 ± 0.42	4.73 ± 0.078		
LPRRPRKGSSELGFPRVAPEDEVI [RNF208]	4.37 ± 0.23	4.33 ± 0.15		
LPTITSELSGAPRCHTVPCAGSTA [PXN]	3.86 ± 0.34	3.83 ± 0.27		
LPVGGRLPGPTRPVLGRRAVGGRL [HAGHL]	3.983 ± 0.03	4.24 ± 0.64		
LQHEERETRQKKLEVAMEEEGLAD [STK38L]	5.59 ± 0.28	5.56 ± 0.11		
LQHGDQLSICFTCFKAAFLDFKDL [TEX19]	2.89 ± 0.52	2.51 ± 0.36		
LQKDEYRPDKALSEGDLKNAIRVH [PSD2]	4.56 ± 0.055	4.58 ± 0.16		
LQMEFKAVQQVQRLPFLSSSNLSL [POMP]	2.15 ± 0.22	2.16 ± 0.17		
LRAFVNSQIQGHKEMSKVWNDLRP [SNX8]	2.39 ± 0.21	2.62 ± 0.27		
LRGPRERAPSERSGPAASEHSHRS [DVL3]	5.14 ± 0.3	5.34 ± 0.057		
LRKIIDFIYTAKLSLNMDNLQDTL [KLHL13]	2.79 ± 0.63	2.44 ± 0.78		
LRQQCAQVLRNNPDALSDVGEVPY [ELOA2]	3.88 ± 0.21	3.93 ± 0.16		
LRQRRPLRPQVVTDDDGQAPEAKD [APMAP]	5.43 ± 0.16	5.52 ± 0.12		
LRRIRAESGTKGLFAGFLPRIIKA [SLC25A39]	2.05 ± 0.27	2.15 ± 0.33		
LRTTVHHAFPVVTENRGNEKEFMK [CLCN6]	4.05 ± 0.27	4.38 ± 0.098		
LRVWDMFFCEGVKIIFRVGLVLLK [TBC1D10A]	2.6 ± 0.38	2.37 ± 0.29		
LSARDHQKLEREARICRLLKHPNI [CAMK2A]	2.98 ± 0.069	3.01 ± 0.26		
LSFAAKQRELHSHVTNAMVLVNVL [DHCR7]	2.49 ± 0.77	2.44 ± 0.79		
LSLCCWGWVSGQLRYSVVEESEPG [PCDHGC5]	2.65 ± 0.48	2.25 ± 0.5		
LSLEAVICFKEMLANSWNCLPKHL [KLHDC2]	2.49 ± 0.35	2.37 ± 0.53		

Sequence	protein stability index [1]	protein stability index [2]	protein stability index [3]	protein stability index [4]
LSSAEENEPSQAETAVEGDPSGVS [C18orf25]	5.47 ± 0.24	5.39 ± 0.47		
LTHLSLSRRASESSLSSESSESSD [CDC25B]	5.38 ± 0.24	5.4 ± 0.12		
LTIEERYLPQCSYFKCVQKDIQPY [CCND2]	2.37 ± 0.31	2.49 ± 0.24		
LTVQFVQGIFVEKYDPTIEDSYRK [RAP1B]	2.17 ± 0.47	2.1 ± 0.57		
LVLPLVPELLSTHPFFDTAEPDMD [INTS4]	2.56 ± 0.11	2.76 ± 0.68		
LVLYPTSLAIFSEELDGLCFKGEL [PLEKHN1]	2.88 ± 0.58	2.96 ± 0.23		
LVSWLPRLNAYRGYCSNQLAAKAL [NET1]	2.5 ± 1	2.1 ± 0.2		
LVVHTGCKDFLCQFCAQRFGRKDH [PLAGL1]	2.6 ± 0.34	2.98 ± 0.091		
LVYVAAFSIGLGPMPWLVLSEIFP [SLC2A12]	3.22 ± 0.44	3.19 ± 0.7		
MAAKSQPNIPKAKSLDGVTNDRTA [DHCR7]	5 ± 0.15	5.04 ± 0.16		
MASTTTCTRFTDEYQLFEELGKGA [CAMK2D]	3.74 ± 0.38	3.64 ± 0.29		
MAYAKLMLTVMTKYQANITETQRL [FANCE]	3.16 ± 0.75	2.95 ± 0.52		
MCLKKNHEEEVSVLRCQLGDRLNV [KRT36]	3.24 ± 0.29	3.02 ± 0.35		
MCQTKHSPWADGTPCGPAQACMGG [ADAMTS4]	3.26 ± 0.43	3.44 ± 0.4		
MDGQTDFWRDWEDYAHGFGNISGE [TNXB]	3.94 ± 0.34	4.34 ± 0.58		
METLCLRASFWLALVGCVISDNPE [EDNRA]	3.25 ± 0.19	2.7 ± 0.75		
MFLAMLAVVSCASIGSGEPPTGN [CDK11A]			2.67 ± 0.36	2.46 ± 0.39
MGLVETKLAIIPGGGGTQRLPRAI [AUH]	2.99 ± 0.82	3.34 ± 0.35		
MGQKLSGSLKSVEVREPALRPAKR [SPSB4]	4.37 ± 0.31	4.62 ± 0.11		
MIVDVTPYMNPSPFTVSPNTHVSQ [CLCN6]	2.47 ± 0.17	2.8 ± 0.31		
MKLSLGGSEMGLSSHLQSSKAGPT [KLHL13]	3.79 ± 0.26	3.57 ± 0.29		
MLEMVPEKRASAGECLRHPWLNS [SRPK2]			3.79 ± 0.34	3.85 ± 0.25
